Data reported in PMC9266650 (2022).
Read-outs that look alike come from different tables or passages of the source. Each block holds one binder with its values, some of them ahead of it.

Key:
[1] = molecular target: T1, T148-ADP-ribosylated-actin (100% TccC3-ADP-ribosylated actin) ( (purified from rabbit or …, UniProt P68135 1-377)); test: FP
[2] = molecular target: T2, Skeletal actin, unmodified (0% ADPR-actin control) ( (purified from rabbit or …, UniProt P68135 1-377)); test: FP
[3] = molecular target: T1, T148-ADP-ribosylated-actin (100% …)
[4] = molecular target: T2, Skeletal actin, unmodified (0% …)

- Kd [1]: 2.44 µM
B1: Thymosin-β4 (peptide)
chain: SDKPDMAEIEKFDKSKLKKTETQEKNPLPSKETIEQEKQAGES
modifications: not fully specified; ADP-ribose on threonine-148 (T148)

- Kd [2]: 0.38 µM
B2: Thymosin-β4 (peptide)
chain: SDKPDMAEIEKFDKSKLKKTETQEKNPLPSKETIEQEKQAGES
modifications: not fully specified

- Kd [3]: 0.331 µM
- Kd [4]: 0.0216 µM
B3: Actin-depolymerizing factor (natural protein)
chain: MASGVQVADEVCRIFYDMKVRKCSTPEEIKKRKKAVIFCLSADKKCIIVEEGKEILVGDVGVTITDPFKHFVGMLPEKDCRYALYDASFETKESRKEELMFFLWAPELAPLKSKMIYASSKDAIKKKFQGIKHECQANGPEDLNRACIAEKLGGSLIVAFEGCPV
